T1: GST-scKap104 (S. cerevisiae, UniProt P38217 1-918)
T1 sequence (looked up): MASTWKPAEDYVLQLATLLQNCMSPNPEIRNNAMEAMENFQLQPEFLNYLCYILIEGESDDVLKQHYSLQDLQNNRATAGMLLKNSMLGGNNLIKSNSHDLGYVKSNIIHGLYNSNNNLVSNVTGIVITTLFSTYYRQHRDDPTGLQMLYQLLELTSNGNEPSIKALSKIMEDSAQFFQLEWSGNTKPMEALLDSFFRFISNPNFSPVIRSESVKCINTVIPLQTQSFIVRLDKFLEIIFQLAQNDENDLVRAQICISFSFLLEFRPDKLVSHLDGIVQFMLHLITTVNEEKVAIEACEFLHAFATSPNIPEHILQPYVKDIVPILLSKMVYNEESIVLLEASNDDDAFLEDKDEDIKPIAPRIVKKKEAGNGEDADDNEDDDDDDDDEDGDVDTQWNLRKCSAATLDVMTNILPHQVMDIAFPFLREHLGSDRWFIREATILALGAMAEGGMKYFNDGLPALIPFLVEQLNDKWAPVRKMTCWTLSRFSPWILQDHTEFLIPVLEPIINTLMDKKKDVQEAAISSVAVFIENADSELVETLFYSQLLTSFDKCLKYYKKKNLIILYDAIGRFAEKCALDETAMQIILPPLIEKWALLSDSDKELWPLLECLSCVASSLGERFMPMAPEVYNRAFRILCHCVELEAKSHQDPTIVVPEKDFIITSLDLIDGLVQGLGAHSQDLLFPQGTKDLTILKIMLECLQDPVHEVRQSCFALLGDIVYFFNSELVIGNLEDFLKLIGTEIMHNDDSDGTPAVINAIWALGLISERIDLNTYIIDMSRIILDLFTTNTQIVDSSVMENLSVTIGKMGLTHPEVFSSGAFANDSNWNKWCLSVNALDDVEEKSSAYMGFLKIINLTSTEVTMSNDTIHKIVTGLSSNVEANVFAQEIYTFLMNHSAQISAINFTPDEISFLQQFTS


Molecular target: T1, GST-scKap104
Assay: pull-down

Binder | binding result
His6-scAcl4•scRpL4 (complex) chain 1: MSELEATIRQAKEALAENNAKKALKILKPFKSSLKKENANNVILNEVFADAYLDNGQVEKAYPILARACELDPEGQVGGPDKFFTMGQIMGGQDGVSIITRGIMNISNTGGEMLTNVQVEKIVGGLLSVIEIWMTDLCMEPNAEEQCEELIQKAMELTEGKSPETWSTLGSIKISQQKFGEAYEAFSQAWNFFELKKQEIGSGINENGDTTQKAGLQSEYVDLLQPLLSLTKMCLEVGAYEVALKVIAAVRDIDEDNIEGYYLEGFTYYLMSKLEIFKLNNPEVSLRPENIYEFNQLIQEVPLDLSHEPISQLIYDSRLALSFALQAGVNADSKDEIVQELLGGANALLQEIGGPLDPSELTQIKKGDLVNENEDLEELDIEEEYSD chain 2: not shown | binds
scRpL4 (natural protein) not shown | binds

From PMC6742479 (Molecular cell, 2015)
